In US20100009014A1, “Use of composition for manufacture of medicant and method for inhibiting formation of body fat” (Maxluck Biotechnology Corp., priority 2008, published 2010):

Experiment: Epididymal fat weight and body weight, lactoferrin vs trivalent chromium vs combination (Test Example 5)
Assay type: in vivo, C57BL/6JNarl mice
Settings: fed 7 weeks; for Body weight / Epididymal fat weight: high-fat diet
Description: The C57BL/6JNarl mice (N=70) are fed with a mouse diet (high-fat Rodent TestDiet, PMI Nutrition International Inc., MO, U.S.A.; 67% of calories provided by fat). The C57BL/6JNarl mice are randomly divided into seven groups and there are ten mice in each group. In one experimental group, the mice are fed with the mouse diet mixed with lactoferrin (NZMP lactoferrin, New Zealand, low dose: 40 mg/kg BW/day, high dose: 80 mg/kg BW/day). In another experimental group, the mice are fed with the mouse diet mixed with trivalent chromium (chromium (III) chloride hexahydrate, low dose: 40 μg/kg BW/day Cr^3+, high dose: 80 μg/kg BW/day Cr^3+). In yet another experimental group, the mice are fed with the mouse diet mixed with a lactoferrin/trivalent chromium composition (low dose: lactoferrin of 40 mg/kg BW/day with Cr^3+ of 40 μg/kg BW/day, high dose: lactoferrin of 80 mg/kg BW/day with Cr^3+ of 80 μg/kg BW/day). In the control group, the mice are fed with the mouse diet containing no other additive. The C57BL/6JNarl mice aged 8 weeks are fed for 7 weeks and then sacrificed to measure the weight of Epididymal fat and body weight, as shown in Table 5.
Accordingly, it can be known that the lactoferrin/trivalent chromium composition provides more significant efficiency in comparison to single lactoferrin or trivalent chromium.

[1] = High dose (lactoferrin 80 mg/kg BW/day and/or Cr3+ 80 μg/kg BW/day)
[2] = Low dose (lactoferrin 40 mg/kg BW/day and/or Cr3+ 40 μg/kg BW/day)

B1: Lactoferrin: NZMP lactoferrin, New Zealand; glycoprotein capable of binding metal ions, given alone as comparison (protein, UniProt P24627 20-708, looked up)
Lactotransferrin: APRKNVRWCTISQPEWFKCRRWQWRMKKLGAPSITCVRRAFALECIRAIAEKKADAVTLDGGMVFEAGRDPYKLRPVAAEIYGTKESPQTHYYAVAVVKKGSNFQLDQLQGRKSCHTGLGRSAGWIIPMGILRPYLSWTESLEPLQGAVAKFFSASCVPCIDRQAYPNLCQLCKGEGENQCACSSREPYFGYSGAFKCLQDGAGDVAFVKETTVFENLPEKADRDQYELLCLNNSRAPVDAFKECHLAQVPSHAVVARSVDGKEDLIWKLLSKAQEKFGKNKSRSFQLFGSPPGQRDLLFKDSALGFLRIPSKVDSALYLGSRYLTTLKNLRETAEEVKARYTRVVWCAVGPEEQKKCQQWSQQSGQNVTCATASTTDDCIVLVLKGEADALNLDGGYIYTAGKCGLVPVLAENRKSSKHSSLDCVLRPTEGYLAVAVVKKANEGLTWNSLKDKKSCHTAVDRTAGWNIPMGLIVNQTGSCAFDEFFSQSCAPGADPKSRLCALCAGDDQGLDKCVPNSKEKYYGYTGAFRCLAEDVGDVAFVKNDTVWENTNGESTADWAKNLNREDFRLLCLDGTRKPVTEAQSCHLAVAPNHAVVSRSDRAAHVKQVLLHQQALFGKNGKNCPDKFCLFKSETKNLLFNDNTECLAKLGGRPTYEEYLGTEYVTAIANLKKCSTSPLLEACAFLTR
Body weight [1]: 27.9 ± 1.37 g | Epididymal fat weight [1]: 0.82 ± 0.2 g | Body weight [2]: 27.7 ± 2.19 g | Epididymal fat weight [2]: 0.72 ± 0.28 g | Epididymal fat weight and body weight vs control group (in words): cannot achieve significant efficiency
